Assay results reported in US20100215575A1, “Systemic Administration of Chlorotoxin Agents for the Diagnosis and Treatment of Tumors” (TRANSMOLECULAR, INC., priority 2007, published 2010).

Tested on: D54-MG xenografted human glioma tumors
Experiment: Brain tumor targeting after intravenous injection (D54-MG/SCID mouse model)
Format: in vivo
Settings: tail vein injection, measured after 24 hours
Source text: These experiments consisted of five research studies utilizing the […] mouse model.

125I-EGF: 125I-labeled EGF used as a control; EGF receptor is up-regulated in these tumors
Targeting of brain tumor: did not localize to the brain tumors to any appreciable extent
